Test results as given in patent publication US20180298083A1.
Where two headings read alike, the source gives them in different places. Blank lines part the entries; values can stand above or below the substance they belong to.

Assays:
[1] = target: 6631.V3.C10 (HIV-1)
[2] = target: CAAN.A2 (HIV-1)
[3] = target: gp120 of X2088 (HIV-1 strain X2088.c9)
[4] = target: 6631.V3.C10 (HIV-1); remark: listed apart in the source
[5] = target: CAAN.A2 (HIV-1); remark: listed apart in the source
[6] = target: T250-4 (HIV-1)
[7] = target: gp120 of X2088 (HIV-1 strain X2088.c9); remark: listed apart in the source
[8] = target: D167N (HIV-1); assay: gp120 capture ELISA
[9] = target: D279A (HIV-1); assay: gp120 capture ELISA
[10] = target: D368A (HIV-1); assay: gp120 capture ELISA
[11] = target: D457A (HIV-1); assay: gp120 capture ELISA
[12] = target: D474A (HIV-1); assay: gp120 capture ELISA
[13] = target: E370A (HIV-1); assay: gp120 capture ELISA
[14] = target: G366A (HIV-1); assay: gp120 capture ELISA
[15] = target: G367A (HIV-1); assay: gp120 capture ELISA
[16] = target: G471A (HIV-1); assay: gp120 capture ELISA
[17] = target: G472A (HIV-1); assay: gp120 capture ELISA
[18] = target: G473A (HIV-1); assay: gp120 capture ELISA
[19] = target: I371A (HIV-1); assay: gp120 capture ELISA
[20] = target: I467A (HIV-1); assay: gp120 capture ELISA
[21] = target: K282A (HIV-1); assay: gp120 capture ELISA
[22] = target: M373A (HIV-1); assay: gp120 capture ELISA
[23] = target: M475A (HIV-1); assay: gp120 capture ELISA
[24] = target: N197T (HIV-1); assay: gp120 capture ELISA
[25] = target: N262A (HIV-1); assay: gp120 capture ELISA
[26] = target: N280A (HIV-1); assay: gp120 capture ELISA
[27] = target: N332A (HIV-1); assay: gp120 capture ELISA
[28] = target: P369A (HIV-1); assay: gp120 capture ELISA
[29] = target: R469A (HIV-1); assay: gp120 capture ELISA
[30] = target: R476A (HIV-1); assay: gp120 capture ELISA
[31] = target: S365A (HIV-1); assay: gp120 capture ELISA
[32] = target: T283A (HIV-1); assay: gp120 capture ELISA
[33] = target: V372A (HIV-1); assay: gp120 capture ELISA
[34] = target: monomeric gp120^JRCSF (HIV-1 strain JRCSF) (UniProt P20871); assay: gp120 capture ELISA
[35] = target: gp120 Resurfaced Stabilized Core (RSC3); assay: ELISA on coated RSC3
[36] = target: 6631.V3.C10 (HIV-1); remark: listed apart in the source
[37] = target: CentrB, centromere B; assay: Luminex AtheNA Multi-Lyte ANA test
Chain of CentrB, centromere B (P07199 2-599): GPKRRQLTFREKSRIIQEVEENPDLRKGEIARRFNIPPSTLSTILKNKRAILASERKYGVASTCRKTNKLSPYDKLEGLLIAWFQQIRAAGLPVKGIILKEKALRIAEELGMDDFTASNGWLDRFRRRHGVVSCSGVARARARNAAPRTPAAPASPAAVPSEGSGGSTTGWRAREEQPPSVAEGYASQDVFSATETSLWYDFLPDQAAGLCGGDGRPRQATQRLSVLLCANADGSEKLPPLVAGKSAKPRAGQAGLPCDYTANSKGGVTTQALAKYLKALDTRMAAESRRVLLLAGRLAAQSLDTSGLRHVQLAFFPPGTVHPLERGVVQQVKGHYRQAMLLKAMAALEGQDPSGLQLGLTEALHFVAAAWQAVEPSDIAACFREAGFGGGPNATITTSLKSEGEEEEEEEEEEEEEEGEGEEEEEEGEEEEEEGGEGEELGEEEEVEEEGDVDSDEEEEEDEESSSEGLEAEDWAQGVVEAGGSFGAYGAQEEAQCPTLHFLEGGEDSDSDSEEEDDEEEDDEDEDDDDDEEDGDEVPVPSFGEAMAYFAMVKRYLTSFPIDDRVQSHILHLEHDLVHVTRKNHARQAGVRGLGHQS

[38] = target: Histone; assay: Luminex AtheNA Multi-Lyte ANA test
[39] = target: Jo1 antigen; assay: Luminex AtheNA Multi-Lyte ANA test
[40] = target: RNP, ribonucleoprotein; assay: Luminex AtheNA Multi-Lyte ANA test
[41] = target: SSA, Sjogren's syndrome antigen A; assay: Luminex AtheNA Multi-Lyte ANA test
[42] = target: SSB, Sjogren syndrome antigen B (Homo sapiens (Human)) (UniProt P05455); assay: Luminex AtheNA Multi-Lyte ANA test
Chain of SSB, Sjogren syndrome antigen B (Homo sapiens (Human)) (P05455 whole entry): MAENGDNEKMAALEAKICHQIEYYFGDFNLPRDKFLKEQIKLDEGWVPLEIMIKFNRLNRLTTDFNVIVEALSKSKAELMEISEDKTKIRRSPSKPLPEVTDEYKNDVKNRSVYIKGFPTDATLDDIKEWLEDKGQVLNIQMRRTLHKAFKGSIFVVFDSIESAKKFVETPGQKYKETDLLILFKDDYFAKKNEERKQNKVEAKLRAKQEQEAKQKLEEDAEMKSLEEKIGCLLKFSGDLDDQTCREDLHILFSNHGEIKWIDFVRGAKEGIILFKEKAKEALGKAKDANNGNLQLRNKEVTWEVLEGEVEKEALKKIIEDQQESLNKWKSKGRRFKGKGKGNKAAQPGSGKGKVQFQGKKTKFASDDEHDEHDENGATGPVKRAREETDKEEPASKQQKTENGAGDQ

[43] = target: Scl 70, scleroderma 70; assay: Luminex AtheNA Multi-Lyte ANA test
[44] = target: Sm, Smith antigen; assay: Luminex AtheNA Multi-Lyte ANA test
[45] = target: T250-4 (HIV-1); remark: listed apart in the source

Substance: N6 with FRL1 of VRC01 (antibody)
neutralisation IC50 [1]: 0.642 µg/mL | neutralisation IC50 [2]: 1.01 µg/mL | neutralisation IC50 [3]: 1.14 µg/mL

Substance: 12A21 (antibody)
neutralisation IC50 [4]: 2.37 µg/mL | neutralisation IC50 [5]: 0.539 µg/mL | neutralisation IC50 [6]: > 50 µg/mL | neutralisation IC50 [7]: > 50 µg/mL | Binding affinity relative to WT (%) [8]: 108% | Binding affinity relative to WT (%) [9]: 188% | Binding affinity relative to WT (%) [10]: 30% | Binding affinity relative to WT (%) [11]: 23% | Binding affinity relative to WT (%) [12]: 19% | Binding affinity relative to WT (%) [13]: 16% | Binding affinity relative to WT (%) [14]: 6% | Binding affinity relative to WT (%) [15]: 2% | Binding affinity relative to WT (%) [16]: 162% | Binding affinity relative to WT (%) [17]: 97% | Binding affinity relative to WT (%) [18]: 53% | Binding affinity relative to WT (%) [19]: 17% | Binding affinity relative to WT (%) [20]: 49% | Binding affinity relative to WT (%) [21]: 29% | Binding affinity relative to WT (%) [22]: 63% | Binding affinity relative to WT (%) [23]: 76% | Binding affinity relative to WT (%) [24]: 131% | Binding affinity relative to WT (%) [25]: 167% | Binding affinity relative to WT (%) [26]: 174% | Binding affinity relative to WT (%) [27]: 206% | Binding affinity relative to WT (%) [28]: 122% | Binding affinity relative to WT (%) [29]: 66% | Binding affinity relative to WT (%) [30]: 73% | Binding affinity relative to WT (%) [31]: 454% | Binding affinity relative to WT (%) [32]: 68% | Binding affinity relative to WT (%) [33]: 36% | Binding affinity relative to WT (%) [34]: 100%

Substance: 2G12 (antibody)
Binding affinity relative to WT (%) [27]: 3% | Binding affinity relative to WT (%) [34]: 100% | EC50 (read off the curve) [35]: 0.03 µg/mL

Substance: VRC08 N6CDRH3 (antibody)
neutralisation IC50 [2]: > 50 µg/mL

Substance: N6 GGG60-62AHS VRC27 (antibody)
neutralisation IC50 [36]: 0.089 µg/mL

Luminex reactivity (unit not given) [37]: 2 | Luminex reactivity (unit not given) [38]: 3 | Luminex reactivity (unit not given) [39]: 2.5 | Luminex reactivity (unit not given) [40]: 1.3 | Luminex reactivity (unit not given) [41]: 3.3 | Luminex reactivity (unit not given) [42]: 4.8 | Luminex reactivity (unit not given) [43]: 2 | Luminex reactivity (unit not given) [44]: 2.3
Substance: synagis (antibody)

Substance: VRC27 (antibody)
neutralisation IC50 [5]: 0.264 µg/mL | Binding affinity relative to WT (%) [8]: 37% | Binding affinity relative to WT (%) [9]: 7% | Binding affinity relative to WT (%) [10]: 0% | Binding affinity relative to WT (%) [11]: 19% | Binding affinity relative to WT (%) [12]: 0% | Binding affinity relative to WT (%) [13]: 2% | Binding affinity relative to WT (%) [14]: 3% | Binding affinity relative to WT (%) [15]: 0% | Binding affinity relative to WT (%) [16]: 131% | Binding affinity relative to WT (%) [17]: 0% | Binding affinity relative to WT (%) [18]: 6% | Binding affinity relative to WT (%) [19]: 0% | Binding affinity relative to WT (%) [20]: 27% | Binding affinity relative to WT (%) [21]: 57% | Binding affinity relative to WT (%) [22]: 23% | Binding affinity relative to WT (%) [23]: 35% | Binding affinity relative to WT (%) [24]: 28% | Binding affinity relative to WT (%) [25]: 0% | Binding affinity relative to WT (%) [26]: 0% | Binding affinity relative to WT (%) [27]: 57% | Binding affinity relative to WT (%) [28]: 38% | Binding affinity relative to WT (%) [29]: 0% | Binding affinity relative to WT (%) [30]: 37% | Binding affinity relative to WT (%) [31]: 107% | Binding affinity relative to WT (%) [32]: 15% | Binding affinity relative to WT (%) [33]: 15% | Binding affinity relative to WT (%) [34]: 100%

Substance: CD4-Ig (from UniProt P01730 26-203) (Fc fusion; other documents disagree on this pair)
Binding affinity relative to WT (%) [34]: 100%

Substance: N6 heavy chain with 12A21 light chain (antibody)
neutralisation IC50 [4]: 3.11 µg/mL | neutralisation IC50 [5]: 3.71 µg/mL | neutralisation IC50 [7]: 0.314 µg/mL

Substance: N6 with CDRH1 of VRC27 (antibody)
neutralisation IC50 [36]: 0.122 µg/mL

Substance: N6 with FRL3 of VRC01 (antibody)
neutralisation IC50 [1]: > 50 µg/mL | neutralisation IC50 [3]: > 50 µg/mL

Substance: 3BNC117 (antibody)
Binding affinity relative to WT (%) [8]: 95% | Binding affinity relative to WT (%) [9]: 0% | Binding affinity relative to WT (%) [10]: 16% | Binding affinity relative to WT (%) [11]: 84% | Binding affinity relative to WT (%) [12]: 38% | Binding affinity relative to WT (%) [13]: 31% | Binding affinity relative to WT (%) [14]: 27% | Binding affinity relative to WT (%) [15]: 25% | Binding affinity relative to WT (%) [16]: 164% | Binding affinity relative to WT (%) [17]: 56% | Binding affinity relative to WT (%) [18]: 40% | Binding affinity relative to WT (%) [19]: 40% | Binding affinity relative to WT (%) [20]: 87% | Binding affinity relative to WT (%) [21]: 3% | Binding affinity relative to WT (%) [22]: 133% | Binding affinity relative to WT (%) [23]: 169% | Binding affinity relative to WT (%) [24]: 101% | Binding affinity relative to WT (%) [25]: 33% | Binding affinity relative to WT (%) [26]: 36% | Binding affinity relative to WT (%) [27]: 82% | Binding affinity relative to WT (%) [28]: 75% | Binding affinity relative to WT (%) [29]: 97% | Binding affinity relative to WT (%) [30]: 171% | Binding affinity relative to WT (%) [31]: 90% | Binding affinity relative to WT (%) [32]: 71% | Binding affinity relative to WT (%) [33]: 62% | Binding affinity relative to WT (%) [34]: 100%

Substance: VRC01 ARP60-62GGGHC (antibody)
neutralisation IC50 [2]: 3.23 µg/mL

Substance: N6 with CDRH1 of VRC01 (antibody)
neutralisation IC50 [1]: > 50 µg/mL | neutralisation IC50 [45]: > 50 µg/mL | neutralisation IC50 [3]: 2.08 µg/mL

Substance: VRC01 G54YHC (antibody)
neutralisation IC50 [2]: 1.31 µg/mL

Substance: N6 heavy chain with VRC01 light chain (antibody)
neutralisation IC50 [4]: 1.04 µg/mL | neutralisation IC50 [5]: 0.211 µg/mL | neutralisation IC50 [7]: > 50 µg/mL

Substance: b12 (antibody)
EC50 (read off the curve) [35]: 0.01 µg/mL

Substance: N6 with FRH3 of VRC01 (antibody)
neutralisation IC50 [1]: 0.152 µg/mL

Substance: N6 with CDRL3 of VRC01 (antibody)
neutralisation IC50 [1]: 0.139 µg/mL | neutralisation IC50 [3]: 0.125 µg/mL

Substance: VRC01 N6CDRH3 (antibody)
neutralisation IC50 [2]: 2.23 µg/mL

Luminex reactivity (unit not given) [37]: 3 | Luminex reactivity (unit not given) [38]: 9 | Luminex reactivity (unit not given) [39]: 146 | Luminex reactivity (unit not given) [40]: 9 | Luminex reactivity (unit not given) [41]: 31 | Luminex reactivity (unit not given) [42]: 161 | Luminex reactivity (unit not given) [43]: 8 | Luminex reactivity (unit not given) [44]: 6.6
Substance: 4E10 (antibody)

Substance: 12A21 heavy chain with N6 light chain (antibody)
neutralisation IC50 [5]: 11 µg/mL

Substance: N6 with CDRL1 of VRC01 (antibody)
neutralisation IC50 [1]: > 50 µg/mL | neutralisation IC50 [3]: > 50 µg/mL

Substance: N6 heavy chain with VRC27 light chain (antibody)
neutralisation IC50 [4]: 0.285 µg/mL | neutralisation IC50 [5]: 0.278 µg/mL | neutralisation IC50 [7]: > 50 µg/mL

Substance: VRC-PG04 (antibody)
Binding affinity relative to WT (%) [8]: 42% | Binding affinity relative to WT (%) [9]: 247% | Binding affinity relative to WT (%) [10]: 12% | Binding affinity relative to WT (%) [11]: 0% | Binding affinity relative to WT (%) [12]: 0% | Binding affinity relative to WT (%) [13]: 20% | Binding affinity relative to WT (%) [14]: 17% | Binding affinity relative to WT (%) [15]: 19% | Binding affinity relative to WT (%) [16]: 64% | Binding affinity relative to WT (%) [17]: 38% | Binding affinity relative to WT (%) [18]: 34% | Binding affinity relative to WT (%) [19]: 21% | Binding affinity relative to WT (%) [20]: 40% | Binding affinity relative to WT (%) [21]: 12% | Binding affinity relative to WT (%) [22]: 44% | Binding affinity relative to WT (%) [23]: 90% | Binding affinity relative to WT (%) [24]: 39% | Binding affinity relative to WT (%) [25]: 14% | Binding affinity relative to WT (%) [26]: 12% | Binding affinity relative to WT (%) [27]: 31% | Binding affinity relative to WT (%) [28]: 44% | Binding affinity relative to WT (%) [29]: 6% | Binding affinity relative to WT (%) [30]: 84% | Binding affinity relative to WT (%) [31]: 34% | Binding affinity relative to WT (%) [32]: 83% | Binding affinity relative to WT (%) [33]: 15%

Substance: N6 with CDRH3 of VRC01 (antibody)
neutralisation IC50 [45]: 4.52 µg/mL

Substance: VRC07 N6CDRH3 (antibody)
neutralisation IC50 [2]: 2.18 µg/mL
